Measurements taken from US11319374B2, “Inhibitors of prototypic galectin dimerization and uses thereof” (INSTITUT NATIONAL DE LA RECHERCHE SCIENTIFIQUE, priority 2015, dated 2022).
Where no end group is shown, it is not given here.

What was measured:
hGal-7 homodimer = target: T1, hGal-7 homodimer (Homo sapiens, UniProt P47929); assay: hGal-7 homodimer disruption, low-SDS native gel electrophoresis / Western blotting; type: biochemical; conditions: recombinant hGal-7 0.5 μM, increasing peptide concentrations
T1 construct: made in house; host or cells: E. coli BL21 (DE3)
Description: Production of recombinant hGal-7 and hGal-1. Human Gal-7 cDNA was cloned into pET-22b(+) using Ndel and HindIII restriction enzymes. Human pET-Gal-1 vector was generously donated by Dr. S. Sato (McGill University, QC, Canada). The proteins were produced in E. coli BL21 (DE3) cells at 37° C. Isopropyl p-D-1-thiogalactopyranoside (IPTG) (1 mM) was added to the bacterial culture at OD600nm=0.6-0.7 and then incubated for 4 h at 37° C. to allow protein production. Bacterial pellets were resuspended in lysis buffer (0.7 mg/mL lysozyme, 10 mM Tris pH 8, 100 mM NaCl, 1 mM EDTA, 1 mM DTT and a protease inhibitor cocktail) and then incubated for 1 h at 37° C. prior to centrifugation for 30 min at 15,000×g (4° C.). The supernatant was then filtered with 500 mL bottle top filter ([…]) (Corning®, New York, N.Y., USA) and then ran through a lactose-agarose column (Sigma®, St. Louis, Mo., USA). The protein was eluted in 1 mL fractions with 150 mM lactose solution. Purified fractions were analyzed by SDS-PAGE. The hGal-7 was then concentrated and purified using Centrifugal filter units (Amicon® Ultra-15, 10K) (EMD®, Etobicoke, ON) in 20 mM potassium phosphate at pH 7.1. All subsequent experiments with the recombinant proteins were performed in the same buffer solution unless mentioned otherwise. Brilliant Coomassie blue was purchased from BioRad® (Bio-Rad Laboratories®, Mississauga, ON, Canada). The recombinant human Bcl-2 protein fragment was purchased from Abcam® (Abcam®, Cambridge, UK, Cat #ab73696).
Western blotting. For the apoptosis tests, whole-cell extracts were homogenized and resuspended in RIPA buffer (Thermo Fisher Scientific®, Rockford, Ill., USA) containing protease inhibitors (Roche®, Laval, QC, Canada). Equal amounts of whole-cell extracts (25 μg) were separated on SDS-PAGE and transferred onto nitrocellulose membranes (Bio-Rad Laboratories®). The membranes were first blocked with 5% milk [w/v] in TBS/0.5% Tween® 20 [v/v] for 1 h at room temperature and subsequently blotted overnight in a solution of TBS containing 3% BSA [w/v] and 0.5% Tween 20 [v/v]. The following antibodies were used: a rabbit anti-Poly-(ADP-ribose) polymerase (PARP)-1 (p25) polyclonal antibody (1:5000; Epitomics®, Burlingame, Calif., USA) and a mouse anti-β-actin (1:10000; Sigma-Aldrich®, St-Louis, Mo., USA). Secondary antibodies consisted of horseradish peroxidase-conjugated donkey anti-rabbit (GE Healthcare®, Buckinghamshire, England) and sheep anti-mouse (GE Healthcare®) IgG. Detection was performed using the enhanced chemiluminescence method (GE Healthcare®). For the recombinant protein tests, each peptide was dissolved and maintained in 20 mM potassium phosphate at pH 7.1. The recombinant proteins and peptide dilutions were pre-incubated for 1 h at 4° C. prior to gel migration. The native polyacrylamide gel was made without SDS to allow molecular weight differentiation between the dimer and monomer. The following antibodies were used: a goat anti-Gal-7 antibody (1:10000; R&D Systems®, Minneapolis, Minn., USA), a mouse anti-Gal-1 antibody (1:10000; Proteintech®, Chicago, Ill., USA) and a rabbit anti-Bcl-2 antibody (1:1000; Abeam®, Cambridge, UK). Secondary antibodies consisted of donkey anti-goat (R&D Systems®) or sheep anti-mouse and sheep anti-rabbit (GE Healthcare®) IgG. Detection was performed as described above.
To determine whether these peptides could inhibit the formation of the hGal-7 homodimer, recombinant hGal-7 (0.5 μM) was incubated with increasing concentrations of hGal-7(13-25), hGal-7(85-102), hGal-7(95-108) or hGal 7(129-135) and the formation of homodimers was measured. To measure the ability of the peptides to disrupt the formation of hGal-7 dimers, a mild denaturing (low SDS) native gel electrophoresis, a commonly used approach to visualize monomer-dimer equilibrium, was used (FIG. 1A and FIG. 6).

Jurkat T cells [1] = assay: Apoptosis/toxicity of peptide alone in Jurkat T cells, Annexin V/PI; type: cell-based
Description: FIG. 8A: Flow cytometry histogram showing propidium iodide (PI) (FL3) labeling of Jurkat T cells without or with 200 μM of hGal-7(129-135). FIG. 8B: Histogram showing the average percentage of Annexin-V (AV) positive Jurkat T cells in the presence of increasing concentrations of […]. FIG. 8C: Flow cytometry histogram showing PI (FL3) labeling of Jurkat T cells without or with 200 μM of PACAP28-38 FIG. 8D: Histogram showing the average percentage of AV-positive Jurkat T cells in the presence of increasing concentrations of PACAP28-38. The percentage of cell death was obtained as described above. Error bars represent standard deviation. Significance was calculated with respect to AF samples. Results are representative of three independent experiments.
Apoptosis assays with Annexin V/PI staining. Apoptosis was measured by flow cytometry using FITC-labeled Annexin V (Biolegend®, San Diego, Calif., USA) and propidium iodide. Briefly, the corresponding dilutions of recombinant hGal-7 and hGal-7(129-135) peptides were pre-incubated for 1 h at 4° C. in serum-free RPMI 1640 medium. 2.5×10^5 Jurkat cells were then harvested in the same medium and incubated with their corresponding dilutions at 37° C. for 4 h. Cells were washed once in PBS and once in binding buffer (0.01 M HEPES, 0.14 M NaCl, 2.5 mM CaCl2, pH 7.4). Cells were then incubated for 15 min with Annexin V in the dark at room temperature. A total of 400 μL of binding buffer containing 0.25 μg/mL propidium iodide was added to the cells before analysis by flow cytometry.

Jurkat T cells [2] = assay: hGal-7-induced apoptosis of Jurkat T cells, PARP-1 cleavage by Western blotting; type: cell-based; conditions: 4 h at 37° C., serum-free RPMI, FIG. 5A
Description: Western blotting. For the apoptosis tests, whole-cell extracts were homogenized and resuspended in RIPA buffer (Thermo Fisher Scientific®, Rockford, Ill., USA) containing protease inhibitors (Roche®, Laval, QC, Canada). Equal amounts of whole-cell extracts (25 μg) were separated on SDS-PAGE and transferred onto nitrocellulose membranes (Bio-Rad Laboratories®). The membranes were first blocked with 5% milk [w/v] in TBS/0.5% Tween® 20 [v/v] for 1 h at room temperature and subsequently blotted overnight in a solution of TBS containing 3% BSA [w/v] and 0.5% Tween 20 [v/v]. The following antibodies were used: a rabbit anti-Poly-(ADP-ribose) polymerase (PARP)-1 (p25) polyclonal antibody (1:5000; Epitomics®, Burlingame, Calif., USA) and a mouse anti-β-actin (1:10000; Sigma-Aldrich®, St-Louis, Mo., USA). Secondary antibodies consisted of horseradish peroxidase-conjugated donkey anti-rabbit (GE Healthcare®, Buckinghamshire, England) and sheep anti-mouse (GE Healthcare®) IgG. […]
(§1) It was thus tested whether hGal-7(129-135) could modulate the binding of hGal-7 on Jurkat T cells, a cell model that is commonly used to test the pro-apoptotic activity of galectins. For this purpose, recombinant hGal-7 was labeled with fluorescein isothiocyante (FITC) and its binding on the surface of Jurkat T cells was measured by flow cytometry in absence or presence of increasing concentrations of hGal-7(129-135). […]

Jurkat T cells [3] = assay: FITC-labeled hGal-7 binding on Jurkat T cells, flow cytometry; type: cell-based; conditions: FITC-labeled hGal-7 0.1 μM pre-incubated with peptide, FIG. 4
Description: FITC conjugation and hGal-7 binding assay. To assess hGal-7 binding onto Jurkat T cells, 5 μL of a 1.25 mg/mL fluorescein isothiocyanate (FITC)/DMSO solution was added to 300 μL of 1.7 μg/μL recombinant hGal-7 in a 0.1 M NaHCO3 pH 9.2 solution and incubated for 1 h at room temperature on a roller. FITC-labeled hGal-7 was then purified using a PD-10 Sepharose® column (GE healthcare) and eluted with PBS containing 0.01% [v/v] sodium azide. FITC-labeled hGal-7 (0.1 μM) was then pre-incubated with hGal-7(129-135) (or related peptides) in 20 mM potassium phosphate buffer pH 7.1 for 1 h at 4° C. Jurkat cells (5×10^5 cells per sample) were harvested in PBS-0.01% [v/v] sodium azide and incubated for 30 min on ice with the FITC-labeled hGal-7 with and without peptides. Cells were then washed with PBS-0.01% [v/v] sodium azide and resuspended in 400 μL of the same buffer and analyzed on a FACSCalibur® (BD Biosciences®).
as §1

T1 sequence (P47929 2-136 limits assumed): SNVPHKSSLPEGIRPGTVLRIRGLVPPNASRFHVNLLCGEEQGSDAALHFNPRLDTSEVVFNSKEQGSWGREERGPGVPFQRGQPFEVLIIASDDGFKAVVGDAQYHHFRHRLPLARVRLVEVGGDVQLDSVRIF

Substance | disruption of hGal-7 homodimers (in words) (hGal-7 homodimer) | toxicity in Jurkat T cells (Jurkat T cells [1]; PI labeling at 200 μM, Annexin V at increasing concentrations, FIGS. 8A to 8D) | induction of apoptosis by peptide alone (Jurkat T cells [1]; peptide alone, FIG. 8) | inhibition of hGal-7-induced apoptosis, PARP-1 cleavage (Jurkat T cells [2]) | fluorescent intensity of Jurkat T cells due to FITC-labeled hGal-7 binding (Jurkat T cells [3])
H-Ile-Arg-Pro-Gly-Thr-Val-Leu-Arg-Ile-Arg-Gly-Leu-Val-NH2 (H-IRPGTVLRIRGLV-NH2; listed as Homo sapiens) [hGal-7(13-25), peptide corresponding to residues 13-25 of hGal-7] | less potent than hGal-7(129-135) |  |  |  | 
L-A-S-V-R-I-F-NH2 (LASVRIF-NH2; listed as Homo sapiens) [[Ala^130]hGal-7(129-135), alanine substitute peptide of hGal-7(129-135)] | abrogates the ability of the peptide to disrupt hGal-7 homodimers |  |  |  | 
PACAP(28-38): control peptide selected based on similarity in amino acid length and minimal toxicity on the cell line (GKRYKQRVKNK) [reference compound] | No such effect was observed | do not induce toxicity in Jurkat T cells | did not induce apoptosis in Jurkat T cells | No such effect was observed | No such effect was observed

Second part, led by results:

disruption of hGal-7 homodimers (in words) (hGal-7 homodimer) | Substance | toxicity in Jurkat T cells (Jurkat T cells [1]; PI labeling at 200 μM, Annexin V at increasing concentrations, FIGS. 8A to 8D) | induction of apoptosis by peptide alone (Jurkat T cells [1]; peptide alone, FIG. 8) | inhibition of hGal-7-induced apoptosis, PARP-1 cleavage (Jurkat T cells [2]) | fluorescent intensity of Jurkat T cells due to FITC-labeled hGal-7 binding (Jurkat T cells [3])
less potent than hGal-7(129-135) | H-Asp-Gly-Phe-Lys-Ala-Val-Val-Gly-Asp-Ala-Gln-Tyr-His-His-NH2 (H-DGFKAVVGDAQYHH-NH2; listed as Homo sapiens) [hGal-7(95-108), peptide corresponding to residues 95-108 of hGal-7] |  |  |  | 
less potent than hGal-7(129-135) | H-Phe-Glu-Val-Leu-lle-Ile-Ala-Ser-Asp-Asp-Gly-Phe-Lys-Ala-Val-Val-Gly-NH2 (H-FEVLIIASDDGFKAVVG-NH2; listed as Homo sapiens) [hGal-7(85-102), peptide corresponding to residues 85-102 of hGal-7] |  |  |  | 
